Test: label from the status in PepcDB records

Protein production, failed:
MLYKSVTESFNEFIIDRSDATCIRCKVCVRQCAYEVHAYEAKADALTEDNTLCIGCRRCSALCPTGAITIRSNEEVFKRNESWSNAHIRNLYAQADTGGILLAAMGNPAKYPIYWDHMLLDASQVTNPSIDPLREPMELRTYLGKKPHSIEVVRDEQTGKPKLATKLTPQIKMEYPFIFSAMSYGALNLNAHKAMAMAAKELGTLYNTGEGGLHRDLYQYGSNVMVQVASGRFGVSEAYLNAGVAIEIKVGQGAKPGIGGHLPGEKVNDQISETRMIPAGADAISPAPHHDIYSIEDLRQLIFALKEATNYTKPVSVKIAAVHHVAAIASGVARAGADIITIDGFRGGTGAAPQVIRDNVGIPMELALAAVDARLRDEGIRNQVSIVVGGGVRSSGDAIKAIALGADAINMGTSTLLALGCTLCQRCYTGKCPWGITTNNPYLAKRLNPELGAERLVNLVHAWGHEMKEILGGMGLNALESLRGNRYKLRALGLTEKDMNILGVMPAGE
MMADEEEEVKPILQKLQELVDQLYSFRDCYFETHSVEDAGRKQQDVRKEMEKTLQQMEEVVGSVQGKAQVLMLTGKALNVTPDYSPKAEELLSKAVKLEPELVEAWNQLGEVYWKKGDVAAAHTCFSGALTHCRNKVSLQNLSMVLRQLRTDTEDEHSHHVMDSVRQAKLAVQMDVHDGRSWYILGNSYLSLYFSTGQNPKISQQALSAYAQAEKVDRKASSNPDLHLNRATLHKYEESYGEALEGFSRAAALDPAWPEPRQREQQLLEFLDRLTSLLESKGKVKTKKLQSMLGSLRPAHLGPCSDGHYQSASGQKVTLELKPLSTLQPGVNSGAVILGKVVFSLTTEEKVPFTFGLVDSDGPCYAVMVYNIVQSWGVLIGDSVAIPEPNLRLHRIQHKGKDYSFSSVRVETPLLLVVNGKPQGSSSQAVATVASRPQCE
MMAERPQPVAAPEEDEIDLGQLLGQIWHGKLWIGSATLAAGMLGLAWLANTAPTYRADTLLQLEEKASPLALPTALSELAGGEARSATEVEILRSRLVLGEAVAAFHLDWEAKPLRAPLVGQAVASGVLPLPEVEGLIRYDRGDSRIRLDLLEVPPEWVEEPILLTAMGEGQFALLLPDGREETGEVGRPLAVPDRGFGLRIGALEGVRGRQFVIRQLDETGAIGALRDRLTVAERGKQSSILEVGLTGRDPAEVQRTLGGIAEAYLRQNMTRSAAEAESSLEFIEGQLPEAQKAVRAAEDRLNAYRQAQQAIDLGFEGQSLLTQISAIETELRQLADQEEEIANRYTSNHPTYQRLLAMRGRLEERLAALRKEVSNLPETQREVFNFTRDLEVAQEVYLQLLNRAQELRVVKASTIGNVRIVDGARTAPEPVAPRRGRTLALALLLGALSGTGLVLGRAWLRRSVRGPEELDRLGLPVFATVLFAPAAVGNRKGRGLLPILALSDPNSATVEGIRSLRTSLHFGMLDAGSRSIALTSSAPAAGKSFTSVNLAVVAAQAGQSVCLIDADLRRGHLRRYFAVAKGTPGLAEYLAGEAELDELLRPGPVEGLAFLSTGQLPPNPSELLMRPRLAELVAELDRRFDLSIFDAPPVLAVTDPVVIGRAVGATIAVVRHDVTGLGEVEALIRQLQGAGVKPAGAVLNAYRPQRGSGRYGYGYGYRYRYDTGYRPQSGD
MMAKIDVELKKLHQILVDRDYFYQVPDYQRPYVWDKDHLGALIDDLVGSYTNNREDEYFCGSIVIVENQKDKRWDVVDGQQRLTSFIILACTILRLYKHSLGQESKDFIEDSIYDRYDKEKERLKFLTAQNYNSIFENTVLNHLEFEDNIKKSELNKKFEENTYLRNAYYFKELLNESVENGSISDIDDFVKWFYEHIVLTRIICFEQDSAMQIFQVLNDRGQPLSPIDILKSSLMQEIKQDSEKRKDFITTWDKLVEACKSVEGVDIDLEDFFNMYLEYADPSTSKKRADKGLKKVFKDSKKDACGFIYEISEFMKAYTALLKKQDRYVYLLRYLPSRYWASILTTALYVKYPDFDALKKLLVSYYYQTWIAGGTITRIKQTSINIIKNVKSNKSVETIKELILNSIDSYNTFDQYLYNLWDSSSVYHSKWVRPVLALANYFMADEEKPHFIAMDAETQVEHILPQTPKRGSQWNADFDKEKREEWVNNIANLTLLKRKKNAHALNGDFDEKRKIYGGKDTSKVISCYDITKELYSNYRKWNEKSLQERYKSLYNTITPVLHIEGQEDDFEDDFDLE

Reference: a protein production outcome set (Wang et al. 2014)
